Article PMC10448171, “Photocycle alteration and increased enzymatic activity in genetically modified photoactivated adenylate cyclase OaPAC” (The Journal of Biological Chemistry, 2023)
Numbering of substitutions follows the chain as printed. Names may count otherwise.

B1: OaPAC (Oxynema acuminatum PCC 6304; D67N) (protein)
chain: MKRLTYISKFSRPLSGDEIEAIGRISSQKNQQANVTGVLLCLDGIFFQILEGEAEKIDRIYERILANERHTDILCLKSEVEVQERMFPDWSMQTINLDENTDFLIRPIKVLLQTLTESHRILEKYTQPSIFKIISQGTNPLNIRPKAVEKIVFFSDIVSFSTFAEKLPVEEVVSVVNSYFSVCTAIITRQGGEVTKFIGDCVMAYFDGDCADQAIQASLDILMELEILRNSAPEGSPLRVLYSGIGLAKGKVIEGNIGSELKRDYTILGDAVNVAARLEALTRQLSQALVFSSEVKNSATKSWNFIWLTDSELKGKSESIDIYSIDNEMTRKSSGGLEIARNIGHYLERVGDRQPSQIFGVKSLPL
notes: full-length, 366 residues, homodimer; N-terminal BLUF domain and C-terminal class III AC domain; pCold-I (Ni-NTA purified), E. coli BL21(DE3); Superdex 200
B2: OaPAC (Oxynema acuminatum PCC 6304) (protein)
chain: B1 chain with N67D
notes: as for B1

Substrate: Nc1ncnc2c1ncn2[C@@H]1O[C@H](COP(=O)(O)OP(=O)(O)OP(=O)(O)O)[C@@H](O)[C@H]1O
Test: EnzChek pyrophosphate coupled assay, A360, Michaelis-Menten fit
Format: biochemical, Oxynema acuminatum
Conditions: continuous illumination; 0-500 μM ATP; 1 μM enzyme
Text: EnzChek pyrophosphate coupled assay, A360, Michaelis-Menten fit on OaPAC

| Protein | Km | Vmax | kcat |
| --- | --- | --- | --- |
| B1 | 0.041 ± 0.005 mM | 0.100 ± 0.002 mM/min | 50.05 min⁻¹ |
| B2 | 0.031 ± 0.001 mM | 0.064 ± 0.007 mM/min | 32.2 min⁻¹ |
